In PMC10760634 (Genes & Development, 2023):

Molecular target: UBE2D2 (wild type) (UniProt P62837 1-147)
Test: ITC

Sequence of UBE2D2 (wild type) (P62837 whole entry): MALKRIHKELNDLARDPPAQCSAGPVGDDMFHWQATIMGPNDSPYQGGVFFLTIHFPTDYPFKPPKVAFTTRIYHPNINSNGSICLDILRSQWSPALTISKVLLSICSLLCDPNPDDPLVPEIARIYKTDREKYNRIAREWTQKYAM

B1: PHF7 (mPHF7 28–307) (domain or fragment)
chain: SSSPVCLLCLQEPGDPEKLGEFLQKDNLCVHYFCLILSSRLPQKGQPNRGLHGFMPEDIKREAVRASKKICFVCKKKGAAIRCQNDQCVQNFHLPCGQERGCLSQFFGEYKSYCRKHRPTQNIHQGSLGEESCVLCCENLSRTSVENIQSPCCSQAIYHRKCIQKYAHTSAKHFFKCPQCNNREEFPQEMLRMGIHIPDRDAAWELEPGAFSELYQRYRHCDAPICLYEQGRDSFEDEGRWRLILCATCGSHGTHRDCSSLRPNSKKWECNECLPASTTS
modifications: RED-NHS dye label (in the MST assay only)
binding result: binds
